In experiment [1] the target is T1, human integrin αvβ5 (human, UniProt P06756 31-992; P18084 24-719).
T1 construct: soluble analyte in SPR at 30, 100, 300 and 1,000 nM in HEPES buffer with 5 mM magnesium chloride; heterodimer of an alpha and a beta chain
Put plainly: SPR, Biacore 3000, peptide immobilised on CM5 chip, integrin 30-1000 nM flowed; grade C = dissociation constant more than 100 nM and 200 nM or less. The procedure: (§1) However, only for the cyclic peptide 22, in which the number of lysine residues having an amino group as the immobilizing functional group was 1, the sample solution to be supplied to the sensor chip was set to 5,000 μL instead of 300 μL. Similarly, 70 μL of the mixed aqueous solution of 0.2 M EDC and 0.04 M NHS was added to another flow channel of the same sensor chip without immobilizing the sample, and then blocking treatment and washing treatment were carried out. Hereinafter, the obtained immobilization-treated sensor chip is referred to as an “immobilization-treated sensor chip A”.
(§2) After adding human integrin αvβ5 for 10 minutes at 25° C., which was diluted to 30 nM using a HEPES buffer solution to which magnesium chloride was added to 5 mM, in each flow channel of the immobilization-treated sensor chip A prepared in (1) above, the same HEPES buffer solution (containing 5 mM magnesium chloride) was allowed to flow as a running buffer for 30 minutes, and measurement was carried out with Biacore 3000.
Then, a regeneration treatment of removing human integrin αvβ5 was carried out by allowing a 0.5 M EDTA aqueous solution to flow through each flow channel for 10 minutes. Further, the above-described measurement process consisting of adding integrin for 10 minutes, allowing a running buffer to flow for 30 minutes, carrying out measurement with Biacore 3000, and carrying out regeneration treatment with 0.5 M EDTA aqueous solution was carried out in the same manner for 100 nM human integrin αvβ5, 300 nM human integrin αvβ5, and 1,000 nM human integrin αvβ5. Dissociation constant between the cyclic peptide and human integrin αvβ5 was calculated from the difference between the value measured by Biacore 3000 in the flow channel immobilized with the cyclic peptide and the value measured by Biacore 3000 in the flow channel unimmobilized with the cyclic peptide, in a case where each concentration of human integrin αvβ5 was allowed to flow, and the integrin binding property was evaluated according to the following evaluation standards. […]

Experiment [2] concerns the target T1, human integrin αvβ5. Put plainly: SPR, Biacore 3000, peptide immobilised on CM5 chip, integrin 30-1000 nM flowed; grade B = dissociation constant more than 50 nM and 100 nM or less. The method, then:
as §1, §2
Then, a regeneration treatment of removing human integrin αvβ5 was carried out by allowing a 0.5 M EDTA aqueous solution to flow through each flow channel for 10 minutes. Further, the above-described measurement process consisting of adding integrin for 10 minutes, allowing a running buffer to flow for 30 minutes, carrying out measurement with Biacore 3000, and carrying out regeneration treatment with 0.5 M EDTA aqueous solution was carried out in the same manner for 100 nM human integrin αvβ5, 300 nM human integrin αvβ5, and 1,000 nM human integrin αvβ5. Dissociation constant between the cyclic peptide and human integrin αvβ5 was calculated from the difference between the value measured by Biacore 3000 in the flow channel immobilized with the cyclic peptide and the value measured by Biacore 3000 in the flow channel unimmobilized with the cyclic peptide, in a case where each concentration of human integrin αvβ5 was allowed to flow, and the integrin binding property was evaluated according to the following evaluation standards. It is preferable that the evaluation result satisfies the evaluation standard A, B, or C.

Bridge positions count the residues as written; N and C are the ends. Square brackets hold non-standard residues; d marks the D form. Ends that are not written are not given here. COCH2 = acetyl group that carries the bridge; hCys = N[C@@H](CCS)C(=O)O; Orn = NCCC[C@H](N)C(=O)O; Dab = NCC[C@H](N)C(=O)O; Dap = NC[C@H](N)C(=O)O

T1 sequence (P06756 31-992, chain 1 of 2): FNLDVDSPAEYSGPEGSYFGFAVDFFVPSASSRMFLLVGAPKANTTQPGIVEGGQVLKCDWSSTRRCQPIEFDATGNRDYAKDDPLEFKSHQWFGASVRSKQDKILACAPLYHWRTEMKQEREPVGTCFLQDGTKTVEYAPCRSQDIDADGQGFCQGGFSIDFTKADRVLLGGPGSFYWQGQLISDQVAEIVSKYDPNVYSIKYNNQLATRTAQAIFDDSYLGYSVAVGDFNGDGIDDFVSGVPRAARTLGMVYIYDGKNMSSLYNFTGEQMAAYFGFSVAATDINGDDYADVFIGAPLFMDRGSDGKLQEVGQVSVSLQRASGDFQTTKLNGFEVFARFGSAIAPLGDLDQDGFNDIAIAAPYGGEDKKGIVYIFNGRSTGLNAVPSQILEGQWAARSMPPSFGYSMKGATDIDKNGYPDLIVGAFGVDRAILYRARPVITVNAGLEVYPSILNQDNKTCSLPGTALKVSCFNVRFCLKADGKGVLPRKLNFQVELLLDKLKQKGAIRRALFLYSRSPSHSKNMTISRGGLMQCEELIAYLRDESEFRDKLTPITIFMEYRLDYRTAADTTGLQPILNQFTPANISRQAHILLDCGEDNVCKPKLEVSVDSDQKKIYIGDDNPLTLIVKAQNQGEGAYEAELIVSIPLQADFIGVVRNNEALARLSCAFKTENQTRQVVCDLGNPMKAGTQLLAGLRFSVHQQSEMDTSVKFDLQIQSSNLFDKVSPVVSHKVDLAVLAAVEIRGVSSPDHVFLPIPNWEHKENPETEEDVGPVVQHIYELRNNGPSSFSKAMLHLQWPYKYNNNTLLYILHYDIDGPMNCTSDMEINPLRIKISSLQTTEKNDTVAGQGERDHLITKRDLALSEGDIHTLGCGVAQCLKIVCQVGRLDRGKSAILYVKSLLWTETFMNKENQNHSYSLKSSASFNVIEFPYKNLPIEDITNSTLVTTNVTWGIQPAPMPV
T1 sequence (P18084 24-719, chain 2 of 2): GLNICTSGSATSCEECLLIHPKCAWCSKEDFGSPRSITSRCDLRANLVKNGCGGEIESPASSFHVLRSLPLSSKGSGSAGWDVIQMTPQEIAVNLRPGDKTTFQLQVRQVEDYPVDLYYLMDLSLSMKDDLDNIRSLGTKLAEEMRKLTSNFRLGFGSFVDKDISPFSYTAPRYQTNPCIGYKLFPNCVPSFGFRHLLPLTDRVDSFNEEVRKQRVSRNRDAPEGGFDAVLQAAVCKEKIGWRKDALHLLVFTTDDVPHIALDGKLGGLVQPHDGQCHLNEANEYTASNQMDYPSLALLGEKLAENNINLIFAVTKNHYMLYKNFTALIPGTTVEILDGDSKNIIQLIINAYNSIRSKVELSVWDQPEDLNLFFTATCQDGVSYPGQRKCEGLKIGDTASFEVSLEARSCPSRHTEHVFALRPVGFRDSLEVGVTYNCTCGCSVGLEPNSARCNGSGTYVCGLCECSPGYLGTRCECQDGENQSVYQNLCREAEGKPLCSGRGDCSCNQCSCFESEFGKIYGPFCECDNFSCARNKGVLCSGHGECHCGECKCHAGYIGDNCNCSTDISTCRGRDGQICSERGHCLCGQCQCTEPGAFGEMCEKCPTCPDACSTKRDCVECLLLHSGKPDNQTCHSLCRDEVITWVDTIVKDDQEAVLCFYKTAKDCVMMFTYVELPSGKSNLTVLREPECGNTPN

In turn, {CH2CO}-I[Dab](COCH2)RGD[hCys]F[hCys]KKK (thioether 2-6, N-8) [Cyclic peptide 2] registered a dissociation constant (KD) in experiment [1] of 100 to 200 nM.

B1: Cyclic peptide 10 (peptide)
peptide: ICRGD[Orn]FCKKK
modifications: bridge N-8, 2-6; not fully specified (residue 6, N-terminus, bridges)
notes: bicyclic; all residues L; immobilised on CM5 chip through amino groups
On to B1, for which the “dissociation constant (KD)” value in experiment [2] is 50 to 100 nM.

B2: Cyclic peptide 19 (peptide)
peptide: {CH2CO}-I[hCys]RGD[Dab](COCH2)FCKKK
modifications: thioether 2-6 via Ac; thioether N-8; not fully specified
notes: as for B1
On to B2, for which the “dissociation constant (KD)” value in experiment [2] is 50 to 100 nM.
{CH2CO}-I[hCys]RGDK(COCH2)FR[hCys]KKK (thioether 2-6, N-9) [Cyclic peptide 33] showed a dissociation constant in experiment [1] of 100 to 200 nM.

B3: Cyclic peptide 6 (peptide)
peptide: {CH2CO}-ICRGD[Dap](COCH2)FCKKK
modifications: thioether 2-6 via Ac; thioether N-8
notes: as for B1
Regarding B3, the “dissociation constant (KD)” value in experiment [1] was in the range of 100 to 200 nM.
{CH2CO}-I[hCys]RGD[Dap](COCH2)F[hCys]KKK (thioether 2-6, N-8) [Cyclic peptide 5] had a dissociation constant (KD) in experiment [2] of 50 to 100 nM.
In turn, {CH2CO}-V[hCys]RGD[Orn](COCH2)F[hCys]KKK (thioether 2-6, N-8) [Cyclic peptide 41] showed a dissociation constant in experiment [2] of 50 to 100 nM.

B4: Cyclic peptide 7 (peptide)
peptide: {CH2CO}-I[hCys]RGD[Dab]F[hCys]KKK
modifications: thioether N-8; bridge 2-6; not fully specified (residue 6, bridges); printed as I- -RGD F-(Hcy)-KKK
In the case of B4, the dissociation constant (KD) in experiment [2] lay within 50 to 100 nM.
{CH2CO}-IK(COCH2)RGD[hCys]F[hCys]KKK (thioether 2-6, N-8) [Cyclic peptide 4]: the dissociation constant (KD) in experiment [2] is 50 to 100 nM.
On to {CH2CO}-I[hCys]RGD[Orn](COCH2)F[hCys]KKK (thioether 2-6, N-8) [Cyclic peptide 9], for which the dissociation constant (KD) in experiment [2] was in the range of 50 to 100 nM.

B5: Cyclic peptide 13 (peptide)
peptide: XXRGDXFCKKK
modifications: not fully specified; thioether: I1 alpha-NH2 through acetyl to C8; thioether: Dap(acetyl)2 to Hcy6
notes: as for B1
Turning to B5, in experiment [2], the “dissociation constant (KD)” value is 50 to 100 nM.

The values above are taken from patent US20220098240A1 (FUJIFILM, published 2022).
